In this assay the target is JUNV GP1 (Junín virus GP1 glycoprotein, residues 87 to 232) (Junín virus (JUNV), strain XJ13 …, UniProt C1K9J9). Nature of the assay: crystal structure. The note with it: both partners purified.

B1: Fab fragment of NAb JUN1 (Fab, V domains shown)
VH: LVQSVETGGGLVRPGNSLKLSCVTSGFTFSNYQMHWLRQPPGKRLEWIAVITVKSDNYGANYVESVKGRFAISRDDSKSSVYLEMNRLREEDTATYFCSRSGIYDGYYAYAMDYWGQGTSVTVSS
VL: SVVMTQSQKFMSTSVGDRVSITCKASQIVGTSVAWYQQKAGQSPKLLIYWASTRHTGVPDRFTAGGSGTDFTLTITNVQSEDLADYFCQQYATYPLTFGSGTKLELK
notes: also called Fab JUN1; JUN1 Fab; source: HEK293T, heavy and light chains coexpressed, purified
As for B1, the binding result is recorded as “binds”.

These data come from publication PMC9040744 (mBio, 2022).
